experiment: soluble on expression in E. coli; label from the status in PepcDB or PDB records

| Sequence | soluble on expression in E. coli |
| --- | --- |
| MASYSEDQCSWRGSGLSQAVKNVEQVWLRCAEGSVEWLYPAGALRLTLSPRLPWSAMGPGESSRSPVSVCVKPDPHWGGAQLYLERDGVLELLVGDETSTTPGPAHVRCFSALPGERPALFLQATPHRDISRRIAAFRYELRGDWTAQPAVNTDPVSSEGACRPCNNTEILMAVCTSDFVVRGNIRSVGTDSNLNAAVIKVSATRVYRQKFALFPESGRLTRSGEIRTPLQCGVRPGAGSFLFTGRVHFGEAWLGCAPRYKDFLKAYEQAKQSLMIPCTLVND | not soluble |
| MSLNTREKYLSNVNRLVIKVGSSTLTHPSGLLNFYKIEHIVRQIADLHNQGIKVILVSSGAIGAGIGKLRLKERPKTIPEKQAAAAVGQGVLMHTYEKLFAEYGQIVGQILITREDLSSKKRVVNVQNTFSALLDHGIIPIVNENDATVVEEIKFGDNDTLSARVASLIKADLLILLSDIDGLYDSNPAVNKNAVLIDTVNEVNEEVKASAGGAGSKLGTGGMATKIRAAEIATENGISMVIANGEKQEAIRNILNFENEGTLFIPKNKEGHHHHHH | soluble |
| MVYSKTFRVEEKSITVSARGTIGVVFYRDFAYLPAVSLICFVPKEEFDIRFLFHALRAIKFKKQGSATGQLTVAQFKEYGIHVPSLKKQKEIAAILDPLYSFFTDLNEGLPAEIELRKKQLDYYQNFLFNWIQKQKELVEQASTN | soluble |
| MKTKTDFLKMKEQGEPITMLTAYDYPSAKLAEEAEVDMILVGDSLGMVVLGYDSTVPVTVEDMIHHTKAVRRGAKETFIVTDMPFMSYHVSLQDTMVNARRIVQESGAHALKVEGAGEVISTIHYLTNAGIPVVAHLGLTPQSVGVLGGYKVQGKDAESAKKLIEDAKKCEEAGAIALVLECVPMQLAELISEQLTIPTIGIGAGQKVDGQVLVYHDLISYGVNRVPKFVKQYTSVQEEIVRGISQYVAEVKTRQFPEEKHSFTMKEEECLALYGGKQS | not soluble |
| MKVGVVGTGFVGSTAAFALVLRGSCSELVLVDRDEDRAQAEAEDIAHAAPVSHGTRVWHGGHSELADAQVVILTAGANQKPGESRLDLLEKNADIFRELVPQITRAAPDAVLLVTSNPVDLLTDLATQLAPGQPVIGSGTVLDSARFRHLMAQHAGVDGTHAHGYVLGEHGDSEVLAWSSAMVAGMPVADFMQAQNLPWNEQVRAKIDEGTRNAAASIIEGKRATYYGIGAALARITEAVLRDRRAVLTVSAPTPEYGVSLSLPRVVGRQGVLSTLHPKLTGDEQQKLEQSAGVLRGFKQQLGL | soluble |
| GMNKEVDLSVSCLGKVKELKYDVIILPWGATEPHNLHLPYLTDCILPHDIAVEAAELALSRSGVRCMVMPPVPFGAHNPGQRELPFCIHTRYATQQAILEDIVSSLHVQGFRKLLILSGHGGNNFKGMIRDLAFEYPDFLIAAANWFEVVSPKGYFEAEIDDHAGESETSVMMHYHPELVNLAEAGDGESKPFAIASLNEKVAWVPRHWDKATVDSGVGNPKKATAEKGERYVKPIVEKLAGLFEEMAQHDLYE | soluble |
| GPGSMLYDEEECIKVIVVGDGNVGKTCMLRRFVRGDFVEQYRKTIGAEFMEKDVFLRSSKTMVKLMLWDTAGQEVFNALTQAYYRGAGAAILTFSTVDRDSLMSIAGWKQRVESVCGCITMVLCQTKFDLSHEAVITHAEAEGLASQLEVPLFRVSAKDDFNVRQLFEFTAQQCVENSAQDEAPVDDMP | not soluble |
| MGSDKIHHHHHHMTVELKNILDLEKWEKLQESLALSTRLAIILVDYKGRPVTKHSQVQPFCQLVRHSPELSKLCEKCDARGGLEAVRTGQPFIYRCHFNIVDMAIPIIVDDQYVGAIMAGEVLLEDHQEELEQVLTMNDAFIQEFLVTHQELYQQYPVLELADLEKSATLIADLSQYIISEAIKKDYLINTYKQSLQISSRKEELEPLNMIQKDIQQTLLTAQLTPSSAYQTKNKQLQPVLDALWENKSLRLNLQELADLVHLTPTYLSRLLKEEFGIPFSQFYRQLKITWAKQLLLETDKTIAQISEDLGFVEDSYFVRIFKQETGETPLKYRKRKNRA | not soluble |
| MREELIEKIKKAGVVGAGGAGFPTHVKVNSKARTVLVNGAECEPLLRVDQQLMAGQASKVVMGLELVMSVTGAKEGIISLKHKYHDAISALEKEISGKPIRIHILDDFYPAGDEHVTVYESTGRLVPQGSIPLKVDCVVHNVETLLNTVDAVADQPVTDTYLTITGEVNQPLTLRLPIGTAISEALAMAGYHDSGGMQVIEGGPMMGKIVADLHQPITKTTKGLIVLPREHPLLRLKTLPADKVLRQSRVSCVQCRFCTDLCPRYLLGHQLEPHKIMRMVNYGQGQEETMKMAFACSECGVCEQYACIMGLSPRAVNALLKKELTRLGIKPSPSPADQAVDPLQPHRKIPVKRLISRLALQDYDRNAPLQERDYPIDRVAIKLCQHVGAPSVPTVKAGQKVKKGDPIASPPAKGLGSYLHASIDGVVQEITDSILISARKGSETQPWNPSV | not soluble |
| MAHHHHHHMTLETTPAPTFSSKKELYDWLVKQVEALVHDMSKRFTPQANLVIGLSNTAALCFYELNRFCNPEAALEKLRVNWFGFYLFQAPGLLALGPFQGRPACTEIRVGKGVCGTVAESGESMVVQSVHEFPGHIACDSASKSEIAVPVLIENGSVVAVIDVDSTELGHFSEEDREGLERMAAVLAQHLDFPMARALAVNPALGLPGYSALAGGEKALQPHGDAEAVPQATPVTTTTTTPATVTAVTRIPFFKVEVKQPDVTTKCVGGWQFTRTNLDRIMTQDETKQLQDSLGISALPEIAFQGKTLSVSPESDREHPWLHFSVEALMCSAAEYYQTEEFKTLVNPQLRIPVSAGWESFHFEKYDPKVDWAWRNNFCGLVPDRGRLVERPRDAADAPGINWDILKDTSLLILFYGDFDMMEDDLRDHGMVTSSVKYRVMSSAFFVLFRHFVRVDNHEIWMREVRVFHEFGKTRTPSGVPHIVFLEQLRHVRIAEPVEGVDWKSMSPDAISAKATVLLSREWMLEKVATA | not soluble |
| MNEQRLSMRLERVATHVPAGARLADIGSDHGYLPVALLNRGAVSAAVAGEVALTPFYAAERTVRENDLDQQISVRLADGLAAIEPTDRITAISLCGMGGETIRDILESGKARLSGQERLILQPNGGEQPLRVWLMEHNYRILDEEVLRENRFDYEIIVAERTGPMIYTAEQLYFGPIQMQTRSPAFLLKWQRLLGKKHKALSNFARARKAVPEEKMQDLAQQIRWITALLN | not soluble |
| MGSDKIHHHHHHMKVDLCARKQADAQASVGIIQREGGTARAYQCDIANPDSVRDFSVQLLEDSTPVDILVLSAAQWLEGALGEEDTDTDIVSTINSGLTGSILLTKTLLPSLRRSQSADILAMISVCGVPQFHDSIAHPAFFAAKHGLSGFSQNLAHHVAQENIRVTGFYPPDFEVTGFDDYPASGEKMGEHLLNARSIWETMRFVLTQPRSCHINAIHFQGPTRTDIGPY | not soluble |
| PLGVSAAGALDRASLRRANRLVGNASSAAAIESVNGGLTVEAVGDQVIAVTGAPTTLTIESPSWVGSDDDDGGARPGGKRTVPMAAPFALLDGELLTLGAPESGFRNYVAIRGGVDAPEVLGSRSADTMSGIGPAPLAIRQVLATGEQTASTAVGAPELQPDFPGAGVTVLDVVPGPRADWFDQEALDSLCNQEWLVTPQSNRVGMRLDGKPLERTREGELPSEGTMAGALQIPPAGLPVLFLADHPITGGYPVIGVVRDEHLDRAAQVPIGGRIRFRLVPDSADFTTTTTKTPEK | not soluble |
| MGSDKIHHHHHHMARVAINGFGRIGRLVYRIIYERKNPDIEVVAINDLTDTKTLAHLLKYDSVHKKFPGKVEYTENSLIVDGKEIKVFAEPDPSKLPWKDLGVDFVIESTGVFRNREKAELHLQAGAKKVIITAPAKGEDITVVIGCNEDQLKPEHTIISCASCTTNSIAPIVKVLHEKFGIVSGMLTTVHSYTNDQRVLDLPHKDLRRARAAAVNIIPTTTGAAKAVALVVPEVKGKLDGMAIRVPTPDGSITDLTVLVEKETTVEEVNAVMKEATEGRLKGIIGYNDEPIVSSDIIGTTFSGIFDATITNVIGGKLVKVASWYDNEYGYSNRVVDTLELLLKM | not soluble |
| MKQHCQKQSTARSTKLQYLAENQNDQPRLLAGSLSHGDSTTGPIKYKDGHQKRTTVVWDGQGTIRDETKSNIIKLTYLYLFPSCGAGSVRELVPFSSYHSFIVTHSTFNITMIALQSKCILPPCLPL | not soluble |
| DITVYNGQHKEAAQAVADAFTRATGIKVKLNSAKGDQLAGQIKEEGSRSPADVFYSEQIPALATLSAANLLEPLPASTINETRGKGVPVAAKKDWVALSGRSRVVVYDTRKLSEKDLEKSVLNYATPKWKNRIGYVPTSGAFLEQIVAIVKLKGEAAALKWLKGLKEYGKPYAKNSVALQAVENGEVDAALINNYYWHAFAREKGVQNVHTRLNFVRHRDPGALVTYSGAAVLKSSQNKDEAKKFVAFLAGKEGQRALTAVRAEYPLNPHVVSTFNLEPIAKLEAPQVSATTVSEKEHATRLLEQAGMK | soluble |
| RSRGNFPIYNNTRVTYFPTGETFFDSLKEQLFLAKKYIFLEFFIIAEGQMWGEILSILEKKVSEGVEVRVLFDGMNELSTLSSDYAKRLEQIGIKAKSFLPISPFISTYYNYRDHRKIVVIDGEVSFTGGINLADEYINEVERFGHWKDAGLMLEGEATDSFLILFLQMWSITEKELIIDPYLSDHSLKLPSDGYVIPYGDSPLDTDKIGKNV | not soluble |
| LSQEETELELLRQFDLAWQYGPCTGITRLQRWHRAEQMGLKPPVEVYQVLKTHPEDSRFQCSLWHLYPL | not soluble |
| MDKIIFQRVTDCEYPSLFSIYKKYLKPTIEEALGWDELYQQQRFNQSYQKEWFDWIMYNGERLGIICTKPDAIRSTIHIHLLIVFEKYQNKGVGTAVMKCYQKHYSDAVTKSCLSAFKVNKSVINFYLSLGYQIVREDEHFVEMERSLCFSGYMGES | not soluble |
| MKYKSVFDIIGPVMVGPSSSHTAGAVRIGLVARKLFGRKPTWARISFYGSFAETYRGHGTDVAIVAGLLGFDTFDERLPNALEIAQAEGVDVSFSAEEAIPHHPNTARLRIGDDEGELELVGISIGGGKIEIVELNGFALKLSGHHPALLIMHNDRYGTIGAVASVLAKRKINIGHMEVSRKEKGKEALMAIEVDQPLTDDLIQELEQLPNIIQVAKLAD | not soluble |
| MGSDKIHHHHHHMHYQFFATCPRGLEPLLEDELNSIRARQIKPTDGGVGFAGDMLLCYRANLESRIATRILLQVGKGRYSNEDELYQGAYKIDWVQWFEVEQDFMVKVTGVRCPLKSLEFATLRIKDAICDRFREEVGSRPSIDTREPDVRVHAYLGAEEYQLYVDTSGNALYQRGLRRASIEAPLRENLAAGILKLSGWQPGTPLLDPMCGSGTFLLEAAMISLDIAPGSNRSFGFERLKNFNAGAWQSLLKQAKSRAKPVAFQGIYGSDADLRAVRITRKNLEQAGLLDAMQVAHREFTDVVPPAAEGILVANPPYGVRIGEDEELAALYPKMGEALKKKFAGWNAYFLTNDMRLPKLMRLSPTKRTPLFNGPLECRVFEIKMVAGSNRKEKSND | not soluble |
| MDVRIRAIDERSYLNIISAIFKDLGLPQLIDRLVPVDRQCQTRTSDIVSLIILDILSGRQALVHLERWAHDIDWPKWIRPGPDPSWFNDDAIARHLDRLYEANIHQVLSSCLVQIDKKEGLSLRVFHADATDKTVYGAYESDSSDVLHITYGYNRHHRWQKPIGFGLIGNEDGIPFYGDVHDGNLSDKAWNPEVLSRIHEQFKQAKIDDEWMYVADSVAMTKETLAQTKAANAFLITRGPSSLRIVKTALSEADAQPDSAWSAPLRWPRKTAPRIGYGKRPRPMKAAPYG | not soluble |

— the DeepSol protein solubility set
